We go through one protein from publication doi:10.1101/209445, “Large conformational changes in FtsH create an opening for substrate entry” (bioRxiv, 2017).

Broadly, the stoichiometry N is a count of units in the complex or per binding partner.

Series [1] concerns the molecule itself. Description: native gel or EMSA; Native PAGE (Mini-PROTEAN TGX precast gel) of SEC peak 2 (13.4 mL). A general note: A gel shift assay detects complexes by their altered migration in electrophoresis.
Series [2] concerns the molecule itself. Description: negative-stain electron microscopy; SEC peak 1 (dodecamer fraction), 3% uranyl acetate; 15000 particles, 2D class averages; 3D map with no symmetry imposed, 25 Å; two hexamers in a single LMNG micelle.

B1: Full-length Aquifex aeolicus FtsH (enzyme, UniProt O67077 1-634, looked up)
chain: MNALKNFFIWAIIIGAAIVAFNLFEGKREFTTKVSLNEVVKLVEEGKVSYAEVRGNTAIIQTKDGQKLEVTLPPNTNLVDKMVEKGVRVEVANPEPPGGWLVNVFLSWLPILFFIGIWIFLLRQMSGGGNVNRAFNFGKSRAKVYIEEKPKVTFKDVAGIEEVKEEVKEIIEYLKDPVKFQKLGGRPPKGVLLYGEPGVGKTLLAKAIAGEAHVPFISVSGSDFVEMFVGVGAARVRDLFETAKKHAPCIIFIDEIDAVGRARGAIPVGGGHDEREQTLNQLLVEMDGFDTSDGIIVIAATNRPDILDPALLRPGRFDRQIFIPKPDVRGRYEILKVHARNKKLAKDVDLEFVARATPGFTGADLENLLNEAALLAARKGKEEITMEEIEEALDRITMGLERKGMTISPKEKEKIAIHEAGHALMGLVSDDDDKVHKISIIPRGMALGVTQQLPIEDKHIYDKKDLYNKILVLLGGRAAEEVFFGKDGITTGAENDLQRATDLAYRMVSMWGMSDKVGPIAIRRVANPFLGGMTTAVDTSPDLLREIDEEVKRIITEQYEKAKAIVEEYKEPLKAVVKKLLEKETITCEEFVEVFKLYGIELKDKCKKEELFDKDRKSEENKELKSEEVKEEVV
notes: The protomer is the molecule; The construct came from U. Baumann; also called AaFtsH; LMNG-AaFtsH; source: E. coli, overexpressed (pET22a); extracted from purified membranes with LMNG; purified (Ni-NTA/HisTrap, SEC Superose 6)
Take B1: the results for the “stoichiometry N” value in series [1] and in series [2] were 6 and 12, respectively.
